Reference: the supplement of paper PMC5998384

Experiments:
HeLa Kyoto [1] = assay: melting temperature (median over replicates), in situ; higher = more thermally stable
HeLa Kyoto [2] = assay: thermal stability score vs G1/S (z-score of summed log2 fold changes over temperatures); higher = more thermally stable than in G1/S
HeLa Kyoto [3] = assay: solubility change mitosis vs G1/S (difference of NP-40 vs SDS log2 ratios) (log2 ratio difference); higher = more soluble in mitosis
HeLa Kyoto [4] = assay: solubility in G1/S (NP-40 vs SDS abundance) (log2 ratio); higher = more soluble; conditions: cell cycle stage: G1/S
[5] = cell cycle stage: early G1 (4.5 h after nocodazole release)
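For melting temperature (median over replicates), in situ in this document: HeLa Kyoto cells synchronized by double thymidine or nocodazole block, proteins quantified by TMT10plex mass spectrometry, three independent biological replicates.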
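For solubility change mitosis vs G1/S (difference of NP-40 vs SDS log2 ratios) in this document: synchronized HeLa Kyoto cells (double thymidine block for G1/S, nocodazole release for mitosis), protein amounts in NP-40 versus SDS lysates quantified by mass spectrometry, three biological replicates.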
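For solubility in G1/S (NP-40 vs SDS abundance) in this document: HeLa Kyoto cells arrested at G1/S by double thymidine block, proteins quantified by TMT10plex mass spectrometry in mild NP-40 versus SDS extracts, three biological replicates.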
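For thermal stability score vs G1/S (z-score of summed log2 fold changes over temperatures) in this document: synchronized HeLa Kyoto cells, proteins quantified by TMT10plex mass spectrometry, three biological replicates, mitosis taken 0.5 h after nocodazole release, G1/S directly after double thymidine block.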

Sequence | melting temperature (HeLa Kyoto [1]; cell cycle stage: G1/S) | melting temperature (HeLa Kyoto [1]; cell cycle stage: mitosis) | thermal stability score (HeLa Kyoto [2]; [5]) | thermal stability score (HeLa Kyoto [2]; cell cycle stage: mitosis) | solubility change mitosis (log2) (HeLa Kyoto [3]) | solubility in G1/S (log2) (HeLa Kyoto [4])
MADAFGDELFSVFEGDSTTAAGTKKDKEKDKGKWKGPPGSADKAGKRFDGKLQSESTNNGKNKRDVDFEGTDEPIFGKKPRIEESITEDLSLADLMPRVKVQSVETVEGCTHEVALPAEEDYLPLKPRVGKAAKEYPFILDAFQREAIQCVDNNQSVLVSAHTSAGKTVCAEYAIALALREKQRVIFTSPIKALSNQKYREMYEEFQDVGLMTGDVTINPTASCLVMTTEILRSMLYRGSEVMREVAWVIFDEIHYMRDSERGVVWEETIILLPDNVHYVFLSATIPNARQFAEWICHLHKQPCHVIYTDYRPTPLQHYIFPAGGDGLHLVVDENGDFREDNFNTAMQVLRDAGDLAKGDQKGRKGGTKGPSNVFKIVKMIMERNFQPVIIFSFSKKDCEAYALQMTKLDFNTDEEKKMVEEVFSNAIDCLSDEDKKLPQVEHVLPLLKRGIGIHHGGLLPILKETIEILFSEGLIKALFATETFAMGINMPARTVLFTNARKFDGKDFRWISSGEYIQMSGRAGRRGMDDRGIVILMVDEKMSPTIGKQLLKGSADPLNSAFHLTYNMVLNLLRVEEINPEYMLEKSFYQFQHYRAIPGVVEKVKNSEEQYNKIVIPNEESVVIYYKIRQQLAKLGKEIEEYIHKPKYCLPFLQPGRLVKVKNEGDDFGWGVVVNFSKKSNVKPNSGELDPLYVVEVLLRCSKESLKNSATEAAKPAKPDEKGEMQVVPVLVHLLSAISSVRLYIPKDLRPVDNRQSVLKSIQEVQKRFPDGIPLLDPIDDMGIQDQGLKKVIQKVEAFEHRMYSHPLHNDPNLETVYTLCEKKAQIAIDIKSAKRELKKARTVLQMDELKCRKRVLRRLGFATSSDVIEMKGRVACEISSADELLLTEMMFNGLFNDLSAEQATALLSCFVFQENSSEMPKLTEQLAGPLRQMQECAKRIAKVSAEAKLEIDEETYLSSFKPHLMDVVYTWATGATFAHICKMTDVFEGSIIRCMRRLEELLRQMCQAAKAIGNTELENKFAEGITKIKRDIVFAASLYL [SKIV2L2] | 51.3 °C | 51.2 °C | 0.414 | -1.19 | 0.119 | -0.515
MADDIDIEAMLEAPYKKDENKLSSANGHEERSKKRKKSKSRSRSHERKRSKSKERKRSRDRERKKSKSRERKRSRSKERRRSRSRSRDRRFRGRYRSPYSGPKFNSAIRGKIGLPHSIKLSRRRSRSKSPFRKDKSPVREPIDNLTPEERDARTVFCMQLAARIRPRDLEEFFSTVGKVRDVRMISDRNSRRSKGIAYVEFVDVSSVPLAIGLTGQRVLGVPIIVQASQAEKNRAAAMANNLQKGSAGPMRLYVGSLHFNITEDMLRGIFEPFGRIESIQLMMDSETGRSKGYGFITFSDSECAKKALEQLNGFELAGRPMKVGHVTERTDASSASSFLDSDELERTGIDLGTTGRLQLMARLAEGTGLQIPPAAQQALQMSGSLAFGAVAEFSFVIDLQTRLSQQTEASALAAAASVQPLATQCFQLSNMFNPQTEEEVGWDTEIKDDVIEECNKHGGVIHIYVDKNSAQGNVYVKCPSIAAAIAAVNALHGRWFAGKMITAAYVPLPTYHNLFPDSMTATQLLVPSRR [RBM39] | 47.2 °C | 49.3 °C | 1.15 | 5.82 | 0.531 | -1.07
MADEELEALRRQRLAELQAKHGDPGDAAQQEAKHREAEMRNSILAQVLDQSARARLSNLALVKPEKTKAVENYLIQMARYGQLSEKVSEQGLIEILKKVSQQTEKTTTVKFNRRKVMDSDEDDDY [PDCD5] | 54.3 °C | 52.3 °C | -5.9 | -7.32 | 0.568 | -0.112
MADFLPSRSVLSVCFPGCLLTSGEAEQQRKSKEIDKCLSREKTYVKRLVKILLLGAGESGKSTFLKQMRIIHGQDFDQRAREEFRPTIYSNVIKGMRVLVDAREKLHIPWGDNSNQQHGDKMMSFDTRAPMAAQGMVETRVFLQYLPAIRALWADSGIQNAYDRRREFQLGESVKYFLDNLDKLGEPDYIPSQQDILLARRPTKGIHEYDFEIKNVPFKMVDVGGQRSERKRWFECFDSVTSILFLVSSSEFDQVLMEDRLTNRLTESLNIFETIVNNRVFSNVSIILFLNKTDLLEEKVQIVSIKDYFLEFEGDPHCLRDVQKFLVECFRNKRRDQQQKPLYHHFTTAINTENIRLVFRDVKDTILHDNLKQLMLQ [GNA13] | 53.7 °C | 53.5 °C | 1.07 | 1.56 | -0.27 | -0.176
MADIIARLREDGIQKRVIQEGRGELPDFQDGTKATFHYRTLHSDDEGTVLDDSRARGKPMELIIGKKFKLPVWETIVCTMREGEIAQFLCDIKHVVLYPLVAKSLRNIAVGKDPLEGQRHCCGVAQMREHSSLGHADLDALQQNPQPLIFHMEMLKVESPGTYQQDPWAMTDEEKAKAVPLIHQEGNRLYREGHVKEAAAKYYDAIACLKNLQMKEQPGSPEWIQLDQQITPLLLNYCQCKLVVEEYYEVLDHCSSILNKYDDNVKAYFKRGKAHAAVWNAQEAQADFAKVLELDPALAPVVSRELRALEARIRQKDEEDKARFRGIFSH [AIP] | 49.3 °C | 50.3 °C | 1.14 | 1.52 | -0.0524 | 0.556
MADILSQSETLASQDLSGDFKKPALPVSPAARSKAPASSSSNPEEVQKEGPTALQDSNSGEPDIPPPQPDCGDFRSLQEEQSRPPTAVSSPGGPARAPPYQEPPWGGPATAPYSLETLKGGTILGTRSLKGTSYCLFGRLSGCDVCLEHPSVSRYHAVLQHRASGPDGECDSNGPGFYLYDLGSTHGTFLNKTRIPPRTYCRVHVGHVVRFGGSTRLFILQGPEEDREAESELTVTQLKELRKQQQILLEKKMLGEDSDEEEEMDTSERKINAGSQDDEMGCTWGMGEDAVEDDAEENPIVLEFQQEREAFYIKDPKKALQGFFDREGEELEYEFDEQGHSTWLCRVRLPVDDSTGKQLVAEAIHSGKKKEAMIQCSLEACRILDTLGLLRQEAVSRKRKAKNWEDEDFYDSDDDTFLDRTGLIEKKRLNRMKKAGKIDEKPETFESLVAKLNDAERELSEISERLKASSQVLSESPSQDSLDAFMSEMKSGSTLDGVSRKKLHLRTFELRKEQQRLKGLIKIVKPAEIPELKKTETQTTGAENKAKKLTLPLFGAMKGGSKFKLKTGTVGKLPPKRPELPPTLMRMKDEPEVEEEEEEEEEEEKEKEEHEKKKLEDGSLSRPQPEIEPEAAVQEMRPPTDLTHFKETQTHENMSQLSEEEQNKDYQDCSKTTSLCAGPSASKNEYEKSRGELKKKKTPGPGKLPPTLSSKYPEDDPDYCVWVPPEGQSGDGRTHLNDKYGY [SLC4A1AP] | 50.1 °C | 51.7 °C | -0.0668 | 1.11 | -0.0506 | 0.0907
MADISLDELIRKRGAAAKGRLNARPGVGGVRSRVGIQQGLLSQSTRTATFQQRFDARQKIGLSDARLKLGVKDAREKLLQKDARFRIKGKVQDAREMLNSRKQQTTVPQKPRQVADAREKISLKRSSPAAFINPPIGTVTPALKLTKTIQVPQQKAMAPLHPHPAGMRINVVNNHQAKQNLYDLDEDDDGIASVPTKQMKFAASGGFLHHMAGLSSSKLSMSKALPLTKVVQNDAYTAPALPSSIRTKALTNMSRTLVNKEEPPKELPAAEPVLSPLEGTKMTVNNLHPRVTEEDIVELFCVCGALKRARLVHPGVAEVVFVKKDDAITAYKKYNNRCLDGQPMKCNLHMNGNVITSDQPILLRLSDSPSMKKESELPRRVNSASSSNPPAEVDPDTILKALFKSSGASVTTQPTEFKIKL [POLDIP3] | 49.3 °C | 49.9 °C | -0.794 | -0.0102 | 0.732 | -0.386
MADLANEEKPAIAPPVFVFQKDKGQKSPAEQKNLSDSGEEPRGEAEAPHHGTGHPESAGEHALEPPAPAGASASTPPPPAPEAQLPPFPRELAGRSAGGSSPEGGEDSDREDGNYCPPVKRERTSSLTQFPPSQSEERSSGFRLKPPTLIHGQAPSAGLPSQKPKEQQRSVLRPAVLQAPQPKALSQTVPSSGTNGVSLPADCTGAVPAASPDTAAWRSPSEAADEVCALEEKEPQKNESSNASEEEACEKKDPATQQAFVFGQNLRDRVKLINESVDEADMENAGHPSADTPTATNYFLQYISSSLENSTNSADASSNKFVFGQNMSERVLSPPKLNEVSSDANRENAAAESGSESSSQEATPEKESLAESAAAYTKATARKCLLEKVEVITGEEAESNVLQMQCKLFVFDKTSQSWVERGRGLLRLNDMASTDDGTLQSRLVMRTQGSLRLILNTKLWAQMQIDKASEKSIRITAMDTEDQGVKVFLISASSKDTGQLYAALHHRILALRSRVEQEQEAKMPAPEPGAAPSNEEDDSDDDDVLAPSGATAAGAGDEGDGQTTGST [RANBP3] | 55.3 °C | 56.9 °C | 2.19 | 1.81 | -0.0529 | 0.168
MADLLGSILSSMEKPPSLGDQETRRKAREQAARLKKLQEQEKQQKVEFRKRMEKEVSDFIQDSGQIKKKFQPMNKIERSILHDVVEVAGLTSFSFGEDDDCRYVMIFKKEFAPSDEELDSYRRGEEWDPQKAEEKRKLKELAQRQEEEAAQQGPVVVSPASDYKDKYSHLIGKGAAKDAAHMLQANKTYGCVPVANKRDTRSIEEAMNEIRAKKRLRQSGEELPPTS [SPAG7] | 53.1 °C | 55 °C | -1.04 | -1.5 | -0.0144 | 0.68
